Measurements published in CN110606891A.

Target: 鼠CLDN18.2 (mCLDN18.2), claudin-18 isoform A2.1 [Mus musculus], NP_001181850.1 (mouse) (UniProt P56857)
Assay: cell ELISA on mCLDN18.2+ cells (Table 23), background

Sequence of UniProt P56857 (P56857 other isoform, or with tags, fused parts or gaps, form in doubt): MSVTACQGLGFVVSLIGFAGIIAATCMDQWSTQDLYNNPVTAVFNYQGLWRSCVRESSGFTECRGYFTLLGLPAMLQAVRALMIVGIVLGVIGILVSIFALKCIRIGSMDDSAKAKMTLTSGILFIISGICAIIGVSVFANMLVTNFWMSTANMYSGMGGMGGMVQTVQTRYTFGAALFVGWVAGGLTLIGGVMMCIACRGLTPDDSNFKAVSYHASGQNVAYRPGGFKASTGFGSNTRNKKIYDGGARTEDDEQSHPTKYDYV

Emax: 0.19
Substance: Neg IgG (和靶点没有结合的非特异性抗体) (antibody)
